Data reported in the supplement of paper PMC7125110.
± gives the standard error. This sample holds only a part of the variants without activity.

B1: glmS ribozyme (parent)
chain: AUAAAAGCGCCAGAACUACAGAAAUGUAGUUGACGAGGAGGAGGUUUAUCGAAUUUUCGGCGGAUGCCUCCAAA

Assays:
Conditions in all cases: with glucosamine-6-phosphate
glucosamine-6-phosphate [1] = variants of: B1; assay: self-cleavage kobs at 40 uM GlcN6P; higher = faster cleavage; RNA array
Procedure, shortened: (§1)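 Using a hybridised Cy3 probe at 37 °C, barcoded ribozyme variants transcribed in situ by E. coli RNA polymerase on sequenced MiSeq chips were monitored across tiles imaged over ~14 h. The flow contained glucosamine-6-phosphate from 40 μM to 10 mM in HEPES/KCl/Mg(OAc)2 buffer. Signals were normalised to baseline and to non-cleaving reference variants before per-tile medians were fit to one- or two-exponential decays to yield kobs. Weighted Michaelis–Menten fits across concentrations gave kcat and KM.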

glucosamine-6-phosphate [2] = variants of: B1; assay: self-cleavage kobs at 160 uM GlcN6P; higher = faster cleavage; RNA array
Procedure, shortened: as §1

glucosamine-6-phosphate [3] = variants of: B1; assay: self-cleavage kobs at 640 uM GlcN6P; higher = faster cleavage; RNA array
Procedure, shortened: as §1

glucosamine-6-phosphate [4] = variants of: B1; assay: self-cleavage kobs at 10000 uM GlcN6P; higher = faster cleavage; RNA array
Procedure, shortened: as §1

glucosamine-6-phosphate [5] = variants of: B1; assay: self-cleavage kobs at 2500 uM GlcN6P; higher = faster cleavage; RNA array
Procedure, shortened: as §1

| Variant | self-cleavage kobs at 40 uM GlcN6P (glucosamine-6-phosphate [1]) [s⁻¹] | self-cleavage kobs at 160 uM GlcN6P (glucosamine-6-phosphate [2]) [s⁻¹] | self-cleavage kobs at 640 uM GlcN6P (glucosamine-6-phosphate [3]) [s⁻¹] | self-cleavage kobs at 10000 uM GlcN6P (glucosamine-6-phosphate [4]) [s⁻¹] | self-cleavage kobs at 2500 uM GlcN6P (glucosamine-6-phosphate [5]) [s⁻¹] |
| --- | --- | --- | --- | --- | --- |
| G40A C61A | < 1e-05 | < 1e-05 | < 1e-05 |  |  |
| G37C G43A C61A | < 1e-05 |  |  | < 1e-05 |  |
| A12U U57C C61A | < 1e-05 |  | < 1e-05 | < 1e-05 |  |
| A15C A36U | < 1e-05 |  |  | < 1e-05 |  |
| C16G A48G C68U | < 1e-05 |  |  | < 1e-05 |  |
| C10A A36U C68G | 8.85e-05 ± 2.9e-05 |  |  | 6.62e-05 ± 2.1e-05 |  |
| A42C U54A | < 1e-05 | < 1e-05 | < 1e-05 |  | < 1e-05 |
| C8G G41U | < 1e-05 | < 1e-05 | < 1e-05 | < 1e-05 | < 1e-05 |
| U30G G62C | < 1e-05 | < 1e-05 | < 1e-05 | < 1e-05 |  |
| G13C G51A | < 1e-05 |  |  | < 1e-05 | < 1e-05 |
| A42G U45G | 0.000836 ± 0.00024 |  |  | 0.0514 ± 0.014 |  |
| G13A A36G C50G G66C | 0.000105 ± 3.1e-05 |  |  |  |  |
| G35A U54G C68G | 0.000144 ± 5.9e-05 |  |  |  |  |
| G38U U45G C67U | < 1e-05 |  |  | < 1e-05 |  |
| U31C G60U | < 1e-05 | < 1e-05 |  | < 1e-05 |  |
| G35C G51A C68U | < 1e-05 |  |  |  |  |
| A36C G37A | < 1e-05 |  |  | < 1e-05 |  |
| U30A A39G | 0.000182 ± 2.7e-05 | 0.000615 ± 0.00023 | 0.00306 ± 0.0014 | 0.0319 ± 0.014 |  |
| C10U G43U | < 1e-05 | < 1e-05 | < 1e-05 | < 1e-05 | < 1e-05 |
| A12G C50U G59U G60A | < 1e-05 |  |  | < 1e-05 |  |
| G13C C34A | < 1e-05 |  | < 1e-05 | < 1e-05 |  |
| G44A C61G | < 1e-05 | < 1e-05 |  | < 1e-05 | < 1e-05 |
| G7C C34G | < 1e-05 | < 1e-05 | < 1e-05 | < 1e-05 | < 1e-05 |
